Legend:
human PCSK9 [1] = biological target: T1, human PCSK9 (human, UniProt Q8NBP7 31-692); experiment: PCSK9:LDLR FRET, competition
T1 construct: also called hPCSK9; huPCSK9

human PCSK9 [2] = biological target: T1, human PCSK9; experiment: PCSK9:EGFA FRET 2, competition
human PCSK9 [3] = biological target: T1, human PCSK9; experiment: PCSK9:EGFA FRET 1, competition
mouse serum albumin = biological target: T2, mouse serum albumin (mouse, UniProt P07724 25-608); experiment: direct binding ELISA, albumin coated
T2 construct: also called MSA; MuSA

rhesus serum albumin = biological target: T3, rhesus serum albumin (rhesus, UniProt Q28522 17-600); experiment: direct binding ELISA, albumin coated
T3 construct: also called RhSA; Rh-SA

human serum albumin = biological target: T4, human serum albumin (human, UniProt P02768 25-609); experiment: direct binding ELISA, albumin coated
T4 construct: immobilized on chips or coated on plates elsewhere; also called HSA; HuSA

| IC50 (human PCSK9 [1]) [nM] | IC50 (human PCSK9 [2]) [nM] | IC50 (human PCSK9 [3]) [nM] | EC50 (mouse serum albumin) [nM] | EC50 (rhesus serum albumin) [nM] | EC50 (human serum albumin) [nM] | Binder |
| --- | --- | --- | --- | --- | --- | --- |
| 1.3 | 4.81 | 5.81 | 7 | 19.8 | 23.8 | PCSK9-PKE2 tandem 4472_E09 (designed binder, In the real molecule the two parts given here are one polypeptide, joined by the undisclosed linker A. They are written as two chains only because the linker has no letters., not shown: Linker 'A' joining ...NYRTE of the PCSK9 domain to GVSDV... of the PKE2 domain) PCSK9 domain: MGVSDVPRDLEVVAATPTSLLISWDAPAEGYGYYRITYGETGGNSPVQEFTVPVSKGTATISGLKPGVDYTITVYAVEFDFPGAGYYHRPISINYRTE PKE2 domain: GVSDVPRDLEVVAATPTSLLISWDAPAVTVRYYRITYGREVQKYSDLGPLYIYQEFTVPGSKSTATISGLKPGVDYTITVYAVTGSGESPASSKPISINYRTEHHHHHH |
| 1.2 | 4.18 | 3.99 | 3.8 | 27.8 | 40.3 | PCSK9-PKE2 tandem 4472_F04 (designed binder, The real molecule is ONE polypeptide: PCSK9 domain, undisclosed linker D, PKE2 domain. It is given here as two chains because the linker letters are unknown., not shown: The inter-domain linker) PCSK9 domain: MGVSDVPRDLEVVAATPTSLLISWDAPAEGYGYYRITYGETGGNSPVQEFTVPVSKGTATISGLKPGVDYTITVYAVEFDFPGAGYYHRPISINYRTE PKE2 domain: GVSDVPRDLEVVAATPTSLLISWDAPAVTVRYYRITYGREVQKYSDLGPLYIYQEFTVPGSKSTATISGLKPGVDYTITVYAVTGSGESPASSKPISINYRTEHHHHHH |
| 2 | 5.03 | 6.54 | 13.5 | 54 | 70.1 | PCSK9-PKE2 tandem 4472_B11 (designed binder, not shown: small tags and cut ends, The two parts are one polypeptide in the real molecule, joined by the undisclosed linker L; they are given here as separate chains.) PCSK9 10Fn3: MGVSDVPRDLEVVAATPTSLLISWDAPAEGYGYYRITYGETGGNSPVQEFTVPVSKGTATISGLKPGVDYTITVYAVEFDFPGAGYYHRPISINYRTE PKE2 10Fn3: GVSDVPRDLEVVAATPTSLLISWDAPAVTVRYYRITYGREVQKYSDLGPLYIYQEFTVPGSKSTATISGLKPGVDYTITVYAVTGSGESPASSKPISINYRTEHHHHHH |
| 2.4 | 6.95 | 9.36 | 9.8 | 45.1 | 69.2 | PCSK9-PKE2 tandem 4472_B09 (designed binder, not shown: small tags and cut ends, The two parts are one polypeptide in the real molecule, joined by the undisclosed linker K; they are given here as separate chains.) PCSK9 10Fn3: MGVSDVPRDLEVVAATPTSLLISWDAPAEGYGYYRITYGETGGNSPVQEFTVPVSKGTATISGLKPGVDYTITVYAVEFDFPGAGYYHRPISINYRTE PKE2 10Fn3: GVSDVPRDLEVVAATPTSLLISWDAPAVTVRYYRITYGREVQKYSDLGPLYIYQEFTVPGSKSTATISGLKPGVDYTITVYAVTGSGESPASSKPISINYRTEHHHHHH |
| 2 | 7.54 | 9.45 | 8.9 | 64.8 | 101 | PCSK9-PKE2 tandem 4472_E04 (designed binder, not shown: small tags and cut ends, The two parts are one polypeptide in the real molecule, joined by the undisclosed linker Q; they are given here as separate chains.) PCSK9 10Fn3: MGVSDVPRDLEVVAATPTSLLISWDAPAEGYGYYRITYGETGGNSPVQEFTVPVSKGTATISGLKPGVDYTITVYAVEFDFPGAGYYHRPISINYRTE PKE2 10Fn3: GVSDVPRDLEVVAATPTSLLISWDAPAVTVRYYRITYGREVQKYSDLGPLYIYQEFTVPGSKSTATISGLKPGVDYTITVYAVTGSGESPASSKPISINYRTEHHHHHH |
| 1.9 | 5.55 | 6.66 | 9.3 | 59.5 | 85.1 | PCSK9-PKE2 tandem 4472_B05 (designed binder, not shown: small tags and cut ends, The two parts are one polypeptide in the real molecule, joined by the undisclosed linker O; they are given here as separate chains.) PCSK9 10Fn3: MGVSDVPRDLEVVAATPTSLLISWDAPAEGYGYYRITYGETGGNSPVQEFTVPVSKGTATISGLKPGVDYTITVYAVEFDFPGAGYYHRPISINYRTE PKE2 10Fn3: GVSDVPRDLEVVAATPTSLLISWDAPAVTVRYYRITYGREVQKYSDLGPLYIYQEFTVPGSKSTATISGLKPGVDYTITVYAVTGSGESPASSKPISINYRTEHHHHHH |
| 1.1 | 3.42 | 4.5 | 11.3 | 40.8 | 58.9 | PCSK9-PKE2 tandem 4472_F06 (designed binder, The real molecule is ONE polypeptide: PCSK9 domain, undisclosed linker 'G' (a code letter, not the residue), PKE2 domain. It is given here as two chains because the linker letters are unknown., not shown: The inter-domain linker) PCSK9 domain: MGVSDVPRDLEVVAATPTSLLISWDAPAEGYGYYRITYGETGGNSPVQEFTVPVSKGTATISGLKPGVDYTITVYAVEFDFPGAGYYHRPISINYRTE PKE2 domain: GVSDVPRDLEVVAATPTSLLISWDAPAVTVRYYRITYGREVQKYSDLGPLYIYQEFTVPGSKSTATISGLKPGVDYTITVYAVTGSGESPASSKPISINYRTEHHHHHH |
| 2.4 | 6.81 | 7.81 | 10 | 48.3 | 61.3 | PCSK9-PKE2 tandem 4472_G10 (designed binder, The real molecule is ONE polypeptide: PCSK9 domain, undisclosed linker H (a code letter), PKE2 domain. It is given here as two chains because the linker letters are unknown., not shown: The inter-domain linker) PCSK9 domain: MGVSDVPRDLEVVAATPTSLLISWDAPAEGYGYYRITYGETGGNSPVQEFTVPVSKGTATISGLKPGVDYTITVYAVEFDFPGAGYYHRPISINYRTE PKE2 domain: GVSDVPRDLEVVAATPTSLLISWDAPAVTVRYYRITYGREVQKYSDLGPLYIYQEFTVPGSKSTATISGLKPGVDYTITVYAVTGSGESPASSKPISINYRTEHHHHHH |
| 1.6 | 2.72 | 9.06 | 8.6 | 44.4 | 77.8 | PCSK9-PKE2 tandem 4472_A06 (designed binder, not shown: small tags and cut ends, The two parts are one polypeptide in the real molecule, joined by the undisclosed linker M; they are given here as separate chains.) PCSK9 10Fn3: MGVSDVPRDLEVVAATPTSLLISWDAPAEGYGYYRITYGETGGNSPVQEFTVPVSKGTATISGLKPGVDYTITVYAVEFDFPGAGYYHRPISINYRTE PKE2 10Fn3: GVSDVPRDLEVVAATPTSLLISWDAPAVTVRYYRITYGREVQKYSDLGPLYIYQEFTVPGSKSTATISGLKPGVDYTITVYAVTGSGESPASSKPISINYRTEHHHHHH |
| 3 | 7.17 | 9.66 | 4 | 26.8 | 27.8 | PCSK9-PKE2 tandem 4472_H09 (designed binder, The real molecule is ONE polypeptide: PCSK9 domain, undisclosed linker C, PKE2 domain. It is given here as two chains because the linker letters are unknown., not shown: The inter-domain linker) PCSK9 domain: MGVSDVPRDLEVVAATPTSLLISWDAPAEGYGYYRITYGETGGNSPVQEFTVPVSKGTATISGLKPGVDYTITVYAVEFDFPGAGYYHRPISINYRTE PKE2 domain: GVSDVPRDLEVVAATPTSLLISWDAPAVTVRYYRITYGREVQKYSDLGPLYIYQEFTVPGSKSTATISGLKPGVDYTITVYAVTGSGESPASSKPISINYRTEHHHHHH |
| 1.3 | 6.24 | 8.76 | 13.2 | 58.1 | 85.3 | PCSK9-PKE2 tandem 4472_H11 (designed binder, not shown: small tags and cut ends, The two parts are one polypeptide in the real molecule, joined by the undisclosed linker P (a code, not a proline); they are given here as separate chains.) PCSK9 10Fn3: MGVSDVPRDLEVVAATPTSLLISWDAPAEGYGYYRITYGETGGNSPVQEFTVPVSKGTATISGLKPGVDYTITVYAVEFDFPGAGYYHRPISINYRTE PKE2 10Fn3: GVSDVPRDLEVVAATPTSLLISWDAPAVTVRYYRITYGREVQKYSDLGPLYIYQEFTVPGSKSTATISGLKPGVDYTITVYAVTGSGESPASSKPISINYRTEHHHHHH |
| 2.2 | 6.97 | 9.69 | 10.9 | 38.9 | 67.7 | PCSK9-PKE2 tandem 4472_B10 (designed binder, The real molecule is ONE polypeptide: PCSK9 domain, undisclosed linker J, PKE2 domain. It is given here as two chains because the linker letters are unknown., not shown: The inter-domain linker) PCSK9 domain: MGVSDVPRDLEVVAATPTSLLISWDAPAEGYGYYRITYGETGGNSPVQEFTVPVSKGTATISGLKPGVDYTITVYAVEFDFPGAGYYHRPISINYRTE PKE2 domain: GVSDVPRDLEVVAATPTSLLISWDAPAVTVRYYRITYGREVQKYSDLGPLYIYQEFTVPGSKSTATISGLKPGVDYTITVYAVTGSGESPASSKPISINYRTEHHHHHH |
| 1.4 | 3.76 | 6.13 | 3.9 | 15.7 | 26.9 | PCSK9-PKE2 tandem 4472_A11 (designed binder, In the real molecule the two parts given here are one polypeptide, joined by the undisclosed linker B. They are written as two chains only because the linker has no letters., not shown: Linker 'B' joining ...NYRTE of the PCSK9 domain to GVSDV... of the PKE2 domain) PCSK9 domain: MGVSDVPRDLEVVAATPTSLLISWDAPAEGYGYYRITYGETGGNSPVQEFTVPVSKGTATISGLKPGVDYTITVYAVEFDFPGAGYYHRPISINYRTE PKE2 domain: GVSDVPRDLEVVAATPTSLLISWDAPAVTVRYYRITYGREVQKYSDLGPLYIYQEFTVPGSKSTATISGLKPGVDYTITVYAVTGSGESPASSKPISINYRTEHHHHHH |
| 1.7 | 5.22 | 6.32 | 9.5 | 54.1 | 80.2 | PCSK9-PKE2 tandem 4472_D08 (designed binder, not shown: small tags and cut ends, The two parts are one polypeptide in the real molecule, joined by the undisclosed linker N; they are given here as separate chains.) PCSK9 10Fn3: MGVSDVPRDLEVVAATPTSLLISWDAPAEGYGYYRITYGETGGNSPVQEFTVPVSKGTATISGLKPGVDYTITVYAVEFDFPGAGYYHRPISINYRTE PKE2 10Fn3: GVSDVPRDLEVVAATPTSLLISWDAPAVTVRYYRITYGREVQKYSDLGPLYIYQEFTVPGSKSTATISGLKPGVDYTITVYAVTGSGESPASSKPISINYRTEHHHHHH |
| 1.9 | 5.09 | 9.38 | 4.8 | 25.7 | 40.4 | PCSK9-PKE2 tandem 4472_C08 (designed binder, The real molecule is ONE polypeptide: PCSK9 domain, undisclosed linker 'E' (a code letter, not the residue), PKE2 domain. It is given here as two chains because the linker letters are unknown., not shown: The inter-domain linker) PCSK9 domain: MGVSDVPRDLEVVAATPTSLLISWDAPAEGYGYYRITYGETGGNSPVQEFTVPVSKGTATISGLKPGVDYTITVYAVEFDFPGAGYYHRPISINYRTE PKE2 domain: GVSDVPRDLEVVAATPTSLLISWDAPAVTVRYYRITYGREVQKYSDLGPLYIYQEFTVPGSKSTATISGLKPGVDYTITVYAVTGSGESPASSKPISINYRTEHHHHHH |
